# Test results from paper PMC3093366, “A Component of the Xanthomonadaceae Type IV Secretion System Combines a VirB7 Motif with a N0 Domain Found in Outer Membrane Transport Proteins” (PLoS Pathogens, 2011).
# B1: VirB7_(XAC2622_38–52) (peptide)
# peptide: NHFDEAPTEIPLYTS
# notes: also called unlabeled peptide encompassing residues 38–52 from the N-terminal region; source: synthetic peptide, bought: EZBiolab
# B2: VirB7_(XAC2622_24–139_His) (domain or fragment)
# chain: TKPAPDFGGRWKHVNHFDEAPTEIPLYTSYTYQATPMDGTLKTMLERWAADSNMQLSYNLPSDYTLIGPVSAISTTSVQQAATELSAVYAAQGVSVSVSANKLLVQPVPVSSGAKL
# notes: Form with the pET28a N-terminal His-tag not removed; used in the fluorescence titration; not shown: His-tag, N-terminal, kept
# Legend:
# [1] = target: VirB7_(XAC2622_24–139) (Xanthomonas citri subsp. citri strain 306); experiment: NMR 15N relaxation (rotational correlation time); 15N T1 and T2 of 15N-VirB7_(XAC2622_24–139) at 800 µM, 40°C, 600 MHz
# VirB7_(XAC2622_51–134) = target: T1, VirB7_(XAC2622_51–134) (Xanthomonas citri subsp. citri strain …, UniProt A0AAI7ZGD2 51-134, 15N isotope labelled in the NMR titration); experiment: NMR titration; 15N-labeled VirB7_(XAC2622_51–134) (200 µM) titrated with unlabeled VirB7_(XAC2622_38–52) peptide (0 to 740 µM); 15N-HSQC; settings: both partners purified
# T1 construct: also called VirB7_(XAC2622) globular domain; N0 domain; source: E. coli BL21(DE3)RP or BL21(DE3)Star, purified (Q-sepharose, Superdex 75)
# T1 sequence: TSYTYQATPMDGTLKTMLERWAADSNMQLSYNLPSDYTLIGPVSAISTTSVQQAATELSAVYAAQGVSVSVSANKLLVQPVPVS
# VirB9_(XAC2620_34–255) = target: T2, VirB9_(XAC2620_34–255) (Xanthomonas citri subsp. citri strain …, UniProt A0AAI8ESY0 34-255); experiment: other fluorescence titration; intrinsic fluorescence; 0.1 µM aliquots of VirB7_(XAC2622_24–139_His) added to 1 µM VirB9_(XAC2620_34–255) up to 2.2 µM; 5 mM sodium acetate pH 5.0, 25°C, excitation 280 nm, emission 334–342 nm; settings: both partners purified
# T2 construct: also called full length VirB9; full-length VirB9_(XAC2620) minus the first 33 residues
# T2 sequence: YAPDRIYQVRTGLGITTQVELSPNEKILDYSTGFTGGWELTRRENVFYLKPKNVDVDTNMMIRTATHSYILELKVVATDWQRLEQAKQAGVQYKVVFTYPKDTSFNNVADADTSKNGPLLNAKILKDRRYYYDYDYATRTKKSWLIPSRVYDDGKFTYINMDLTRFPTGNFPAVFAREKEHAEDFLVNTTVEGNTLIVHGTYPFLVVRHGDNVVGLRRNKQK
molecule,measurement,setting,value
VirB7_(XAC2622_24–139) (from UniProt A0AAI7ZGD2 24-139) (domain or fragment),stoichiometry N,[1],2
B1,binding result,VirB7_(XAC2622_51–134),binds
B2,Kd,VirB9_(XAC2620_34–255),~40 nM
same,stoichiometry N,VirB9_(XAC2620_34–255),1 VirB7:VirB9
